Columns and labels:
[1] = biological target: MAD^N (B-Pv) (Drosophila melanogaster) (UniProt P42003); assay: EMSA
[2] = biological target: MAD full length (B-H) (Drosophila melanogaster) (UniProt P42003); assay: EMSA; conditions: approximately 100-fold lower than MAD^N
MAD full length (B-H) (Drosophila melanogaster), sequence (P42003 whole entry): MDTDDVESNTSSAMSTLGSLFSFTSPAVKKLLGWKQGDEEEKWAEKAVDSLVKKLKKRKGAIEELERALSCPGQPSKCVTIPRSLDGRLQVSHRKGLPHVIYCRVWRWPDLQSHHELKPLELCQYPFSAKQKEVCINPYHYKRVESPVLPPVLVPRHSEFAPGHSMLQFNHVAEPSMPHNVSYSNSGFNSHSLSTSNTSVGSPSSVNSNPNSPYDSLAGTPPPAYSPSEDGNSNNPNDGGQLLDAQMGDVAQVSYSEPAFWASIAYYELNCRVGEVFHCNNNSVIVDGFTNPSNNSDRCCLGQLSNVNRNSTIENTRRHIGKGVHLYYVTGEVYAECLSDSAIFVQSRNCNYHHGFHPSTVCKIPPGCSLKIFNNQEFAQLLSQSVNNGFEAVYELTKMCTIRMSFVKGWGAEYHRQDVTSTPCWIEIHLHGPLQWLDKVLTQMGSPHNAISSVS

MAD^N (B-Pv) (Drosophila melanogaster), sequence (P42003 1-241): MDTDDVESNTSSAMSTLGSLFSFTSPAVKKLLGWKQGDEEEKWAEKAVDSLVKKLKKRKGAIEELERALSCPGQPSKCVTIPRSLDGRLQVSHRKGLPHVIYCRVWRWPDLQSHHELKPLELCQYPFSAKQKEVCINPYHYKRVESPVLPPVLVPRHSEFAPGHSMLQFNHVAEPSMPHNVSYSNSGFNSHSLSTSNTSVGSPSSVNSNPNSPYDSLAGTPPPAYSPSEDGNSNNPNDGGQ

## ATTC (double strand) [MAD binding site (FIG. 7B)]
[1]; wild-type reference
  binding signal: 1 reference

## ATTC (double strand) [MAD binding site GCT to CGC]
[1]; increased affinity vs wild-type site, MBP fusion
  binding signal: 6 fold vs n15

## ATTC (double strand) [Vg 20 bp]
[2]
  binding signal (fraction of MAD^N): 0.01
